Results reported in article PMC7086397.

Target: actin filament (UniProt P68135)
Test: fluorescence microscopy in a microfluidics chamber

Kd: 75 nM
Substance: fascin (from UniProt Q16658 1-493) (natural protein)
